Literature values as cited in PMC11668491.

Target: UBC2 (Saccharomyces cerevisiae) (UniProt P06104)
Chain of UniProt P06104 (P06104 whole entry): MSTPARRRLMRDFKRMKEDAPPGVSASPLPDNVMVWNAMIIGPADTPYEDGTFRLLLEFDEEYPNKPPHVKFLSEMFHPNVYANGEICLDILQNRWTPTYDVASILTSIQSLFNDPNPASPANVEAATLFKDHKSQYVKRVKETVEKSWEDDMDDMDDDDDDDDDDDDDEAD

Kd: 0.14 µM
Substance: UBR1 U2BR (from UniProt P19812)
